In patent publication US20200362033A1 (Daiichi Sankyo, published 2020):

T1: human-cynomolgus monkey chimeric CD147 hCD147-mu3, on CHO-K1 cells (human, UniProt P35613 140-385)
T1 construct: also called hCD147-mu3_pcDNA3.1; CD147 with mu3 mutation
T1 chain: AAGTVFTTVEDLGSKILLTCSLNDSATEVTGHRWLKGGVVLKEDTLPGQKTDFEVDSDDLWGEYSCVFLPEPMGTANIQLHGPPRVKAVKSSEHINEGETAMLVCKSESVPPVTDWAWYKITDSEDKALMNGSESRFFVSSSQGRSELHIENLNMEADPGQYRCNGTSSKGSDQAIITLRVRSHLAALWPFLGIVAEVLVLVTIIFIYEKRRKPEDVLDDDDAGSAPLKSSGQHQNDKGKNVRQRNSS

T2: human CD147 variant 2 expressed on CHO-K1 cells (pcDNA-DEST40-CD147v2) (human, UniProt P35613 140-385)
T2 construct: also called CHO-K1-hCD147v2; human CD147 expressing CHO-K1 cells
T2 sequence: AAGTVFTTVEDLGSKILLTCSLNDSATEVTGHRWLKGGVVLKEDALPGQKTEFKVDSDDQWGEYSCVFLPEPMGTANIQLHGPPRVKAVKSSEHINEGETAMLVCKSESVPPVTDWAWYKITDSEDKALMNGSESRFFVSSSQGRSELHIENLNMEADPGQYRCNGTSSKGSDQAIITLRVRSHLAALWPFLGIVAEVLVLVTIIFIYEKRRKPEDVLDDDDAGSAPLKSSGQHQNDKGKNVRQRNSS


Key:
[1] = biological target: T1, human-cynomolgus monkey chimeric CD147 …; assay: flow cytometry, transfected CHO-K1 cells
Procedure: Samples with an increase in fluorescence signals of 10 times or more as compared with those in the control cells that were not treated with primary antibodies were determined to be binding positive (+). Samples with a partial increase in fluorescence signals of less than 10 times were determined to be binding slightly positive (±). Samples with no increase in fluorescence signals as compared with those in the control cells that were not treated with primary antibodies were determined to be binding negative (−).

[2] = biological target: T2, human CD147 variant 2 expressed on …; assay: flow cytometry, CHO-K1 cells transfected with human CD147v2, antibody 10 µg/ml, anti-mouse IgG-FITC (Example 1)-8)
Source text: In the graphs, the vertical axis represents the number of cells, and the horizontal axis represents the intensity of fluorescence signals.

| binding result [1] | binding result [2] | Binder |
| --- | --- | --- |
| no binding (tested: 10 µg/ml) | binds | LN22R8 (antibody, V domains shown, also called mouse anti-human CD147 antibody (LN22R8)) VH: QIQLVQSGPELKKPGETVKISCKASGYTFTNYGMNWVKQAPGKGLKWMGWINTYTGEPTYADDFKGRFAFSLETSASTAYLQINNLKNEDTATYFCARGGYGNYGAGAMDYWGQGTSVTVSS VL: DIQMTQSPSSLSASLGERVSLTCRASLEISGFLSWLQQKPDGTIKRLIYAASILDSGVPKRFSGSRSGSDYSLTISSLESEDFADYYCLQYASYPWTFGGGTKLEIKR |
| no binding (tested: 10 µg/ml) | – | 2P10F2 (antibody, V domains shown, also called 2P10F2 rat antibody) VH: EVQLQESGPGLVKPSQSLSLTCSVTGYSITSNYWGWIRKFPGNKMEWMGCITYSGGTSYNPSLKSRISITRDTSKNQFFLQLNSVTTEDTATYYCASSYTSGDVDYWGQGVMVTVSS VL: DIQMTQSPASLSASLGETVSIECLASEGISNSLAWYQQKPGKSPQLLIYGASSLQDGVPSRFSGSGSGTQYSLKISGMQPEDEGVYYCQQGYKYPFTFGSGTKLEIKR |
